B1: hu37D3.v28.A4 (antibody, V domains shown)
VH: EVQLVESGGGLVQPGGSLRLSCAASGLIFRSYGMSWVRQAPGKGLEWVATINSGGTYTYYPDSVKGRFTISRDNSKNTLYLQMNSLRAEDTAVYYCANSYSGAMDYWGQGTLVTVSS
VL: DDVLTQTPLSLPVTPGQPASISCRSSQSIVHSNGNTYLEWYLQKPGQSPQLLIYKVSNRFSGVPDRFSGSGSGTDFTLKISRVEAEDVGVYYCFQGSLVPWTFGQGTKVEIK
B2: hu37D3-H9.v5 (antibody, V domains shown)
VH: EVQLVESGGGLVQPGGSLRLSCAASGLIFRSYGMSWVRQAPGKGLEWVATINSGGTYTYYPDSVKGRFTISRDNSKNTLYLQMNSLRAEDTAVYYCANSYSGAMDYWGQGTLVTVSS
VL: EDVLTQTPLSLPVTPGQPASISCRSSQSIVHSNGNTYFEWYLQKPGQSPQLLIYKVSNRFSGVPDRFSGSGSGTDFTLKISRVEAEDVGVYYCFQGSLVPWTFGQGTKVEIK
B3: hu37D3-H9.v1 (antibody, V domains shown)
VH: EVQLVESGGGLVQPGGSLRLSCAASGLIFRSYGMSWVRQAPGKGLEWVATINSGGTYTYYPDSVKGRFTISRDNSKNTLYLQMNSLRAEDTAVYYCANSYSGAMDYWGQGTLVTVSS
VL: EDQLTQSPSSLSASVGDRVTITCRSSQSIVHSNGNTYFEWYQQKPGKSPKLLIYKVSNRFSGVPSRFSGSGSGTDFTLTISSLQPEDFATYYCFQGSLVPWTFGQGTKVEIK

The target of this assay is monomeric cynomolgus monkey Tau (cynomolgus monkey). The experiment in a line: SPR, hIgG captured, cyno Tau monomer analyte. For orientation: Surface plasmon resonance follows binding to a sensor surface in real time, without labels.
On to B1, for which the dissociation constant (Kd) stood at 0.7 nM, the koff is 0.001 s⁻¹ and the association rate constant (kon) is 1.7e+06 M⁻¹ s⁻¹.

B2 had a Kd of 0.6 nM, an off-rate constant (koff) of 0.001 s⁻¹ and a kon of 1.5e+06 M⁻¹ s⁻¹.

In the case of B3, the equilibrium dissociation constant (Kd) amounted to 0.8 nM, the koff stood at 0.001 s⁻¹ and the kon was 2e+06 M⁻¹ s⁻¹.

One may read the Kd as the constant that tells how readily two partners part at equilibrium. In general, koff refers to the first-order rate constant of dissociation. A word on the kon: it is the rate constant with which the complex forms.

The record behind these values is patent publication US20190367592A1.
